Test results: patent publication US20180137234A1 (University of Washington, published 2018)

Key:
[1] = biological target: the molecule itself; experiment: X-ray crystal structure of the homodimer
[2] = biological target: the molecule itself; experiment: SEC-MALS and SAXS of the original construct
[3] = biological target: the molecule itself; experiment: X-ray crystal structure of the homotrimer

B1: ank3C2_1 (designed binder)
chain: SELGKRLIEAAENGNKDRVKDLLENGADVNASDSDGKTPLHLAAENGHAKVVLLLLEQGADPNAKDSDGKTPLHLAAENGHAVVVALLLMHGADPNAKDSDGKTPLHLAAENGHEEVVILLLAMGADPNTSDSDGRTPLDLAREHGNEEVVKVLEDH
notes: One subunit of a designed homodimer (C2) built from an idealized ankyrin repeat protein; It was expressed in E. coli with an N- or C-terminal (His)6 tag
- binding result [1]: binds

B2: HR04C4_1 (designed binder)
chain: DECEEKARRVAEKVERLKRSGTSEDEIAEEVAREISEVIRTLKESGSSYEVICECVARIVAEIVEALKRSGTSAVEIAKIVARVISEVIRTLKESGSSYEVICECVARIVAEIVEALKRSGTSAAIIALIVALVISEVIRTLKESGSSFEVILECVIRIVLEIIEALKRSGTSEQDVMLIVMAVLLVVLATLQLSGS
notes: One subunit of a designed homotetramer (C4); also called tj10C4_G1
- binding result [2]: binds

B3: ank1C2_1 (designed binder)
chain: SELGKRLIEAAENGNKDRVKDLIENGADVNASDSDGRTPLHHAAENGHAEVVALLIEKGADVNAKDSDGRTPLHHAAENGHDEVVLILLLKGADVNAKDSDGRTPLHHAAENGHKRVVLVLILAGADVNTSDSDGRTPLDLAREHGNEEVVKALEKQ
notes: One subunit of a designed homodimer (C2) built from an idealized ankyrin repeat protein; also called ank1C2_G3; ANK1C2-G3
- binding result [1]: binds

B4: 1na0C3_3 (designed binder)
chain: NLAEKMYKAGNAMYRKGQYTIAIIAYTLALLKDPNNAEAWYNLGNAAYKKGEYDEAIEAYQKALELDPNNAEAWYNLGNAYYKQGDYDEAIEYYQKALELDPNNAEAKQNLGNAKQKQG
notes: One subunit of a designed homotrimer (C3) built from a consensus designed tpr protein
- binding result [3]: binds

B5: HR00C3_2 (designed binder)
chain: IEEVVAEMIDILAESSKKSIEELARAADNKTTEKAVAEAIEEIARLATAAIQLIEALAKNLASEEFMARAISAIAELAKKAIEAIYRLADNHTTDTFMARAIAAIANLAVTAILAIAALASNHTTEEFMARAISAIAELAKKAIEAIYRLADNHTTDKFMAAAIEAIALLATLAILAIALLASNHTTEEFMAKAISAIAELAKKAIEAIYRLADNHTSPTYIEKAIEAIEKIARKAIKAIEMLAKNITTEEYKEKAKSAIDEIREKAKEAIKRLEDNRT
notes: One subunit of a designed homotrimer (C3) built from a de novo designed repeat protein
- binding result [3]: binds
